Results published in PMC7998613, “Annexin A2 Flop-Out Mediates the Non-Vesicular Release of DAMPs/Alarmins from C6 Glioma Cells Induced by Serum-Free Conditions” (Cells, 2021).

Key:
[1] = target: T1, recombinant Strep-tagII-S100A13 protein; experiment: ELISA; vehicle 0.05% DMSO
T1 chain: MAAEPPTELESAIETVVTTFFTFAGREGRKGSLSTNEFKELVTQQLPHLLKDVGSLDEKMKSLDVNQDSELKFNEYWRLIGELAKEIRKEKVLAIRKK

[2] = target: T1, recombinant Strep-tagII-S100A13 protein; experiment: ELISA; 100 uM amlexanox
[3] = target: the molecule itself; experiment: SDS-resistant band on the immunoblot of the pull-down eluate; The Strep-tagII-S100A13 pull-down eluate from the C6 glioma cytosolic fraction was run on SDS-PAGE and blotted with anti-ANXA2. The 63 kDa band is read as the ANXA2 dimer.

B1: annexin A2 (ANXA2), endogenous in C6 glioma cells (natural protein, rat (endogenous in C6 glioma cells), UniProt Q07936 1-339, looked up)
chain: MSTVHEILCKLSLEGDHSTPPSAYGSVKPYTNFDAERDALNIETAIKTKGVDEVTIVNILTNRSNAQRQDIAFAYQRRTKKELPSAMKSALSGHLETVMLGLLKTPAQYDASELKASMKGLGTDEDSLIEIICSRTNQELQEINRVYKEMYKTDLEKDIISDTSGEFRKLLVALAKGKRAEDGSVIDYELIDQDARELYDAGVKRKGTDVPKWISIMTERSVCHLQKVFERYKSYSPYDMLESIRKEVKGDLENAFLNLVQCIQNKPLYFADRLYDSMKGKGTRDKVLIRIMVSRSEVDMLKIRSEFKRKYGKSLYYFIQQDTKGDYQKALLYLCGGDD
notes: annexin A2, rat, endogenous in C6 glioma cells; In whole cell extracts it ran as a single band; also called dimeric ANXA2 of 63 kDa; ANXA2 dimer; source: endogenous, rat C6 glioma cells (cytosolic fraction; fixed cells for in situ PLA)
In the case of B1, the Kd [1] is reported as 416 nM, the Kd [2] is reported as 418 nM and the “stoichiometry N” value [3] is reported as 2.
